Legend:
HLA-B*07:02 [1] = assay: IEDB peptide-MHC binding, purified MHC/competitive/fluorescence; filed as Kd, often an IC50 or EC50 that approximates it; ≥ and ≤ were set here for values at or beyond the usual limits of such assays
HLA-A*03:01 [2] = assay: IEDB peptide-MHC binding, purified MHC/competitive/fluorescence; ≥ and ≤ were set here for values at or beyond the usual limits of such assays
HLA-A*11:01 = assay: as above; settings: source organism: Variola virus
HLA-B*08:01 [3] = assay: as above
HLA-B*40:01 [4] = assay: IEDB peptide-MHC binding, purified MHC/competitive/fluorescence; filed as Kd, often an IC50 or EC50 that approximates it; ≥ and ≤ were set here for values at or beyond the usual limits of such assays
HLA-A*24:02 = assay: IEDB peptide-MHC binding, purified MHC/competitive/fluorescence; ≥ and ≤ were set here for values at or beyond the usual limits of such assays; settings: source organism: Zaire ebolavirus
HLA-A*02:01 [5] = assay: IEDB peptide-MHC binding, purified MHC/direct/fluorescence; filed as Kd, often an IC50 or EC50 that approximates it; ≥ and ≤ were set here for values at or beyond the usual limits of such assays; settings: source organism: Orthohantavirus hantanense
HLA-A*02:19 = assay: as above; settings: source organism: Orthohantavirus sangassouense
HLA-A*02:11 = assay: as above; settings: source organism: Orthohantavirus sangassouense
HLA-C*12:03 = assay: as above
HLA-A*02:12 = assay: as above; settings: source organism: Orthohantavirus sangassouense
HLA-A*69:01 = assay: as above; settings: source organism: Orthohantavirus hantanense
HLA-A*02:01 [6] = assay: IEDB peptide-MHC binding, purified MHC/competitive/fluorescence; ≥ and ≤ were set here for values at or beyond the usual limits of such assays
HLA-B*15:01 [7] = assay: as above; settings: source organism: Vaccinia virus WR
HLA-B*08:01 [8] = assay: IEDB peptide-MHC binding, purified MHC/competitive/fluorescence; filed as Kd, often an IC50 or EC50 that approximates it; ≥ and ≤ were set here for values at or beyond the usual limits of such assays; settings: source organism: Escherichia coli
HLA-B*39:01 = assay: as above; settings: source organism: Escherichia coli
HLA-A*01:01 [9] = assay: IEDB peptide-MHC binding, purified MHC/competitive/radioactivity; filed as Kd, often an IC50 or EC50 that approximates it; ≥ and ≤ were set here for values at or beyond the usual limits of such assays; settings: source organism: Dengue virus 4 Philippines/H241/1956
HLA-C*15:02 = assay: IEDB peptide-MHC binding, purified MHC/direct/fluorescence; filed as Kd, often an IC50 or EC50 that approximates it; ≥ and ≤ were set here for values at or beyond the usual limits of such assays
HLA-A*01:01 [10] = assay: IEDB peptide-MHC binding, purified MHC/competitive/fluorescence; filed as Kd, often an IC50 or EC50 that approximates it; ≥ and ≤ were set here for values at or beyond the usual limits of such assays
HLA-B*58:01 = assay: IEDB peptide-MHC binding, purified MHC/direct/fluorescence; filed as Kd, often an IC50 or EC50 that approximates it; ≥ and ≤ were set here for values at or beyond the usual limits of such assays
HLA-B*57:01 = assay: as above
HLA-B*83:01 = assay: IEDB peptide-MHC binding, purified MHC/competitive/fluorescence; filed as Kd, often an IC50 or EC50 that approximates it; ≥ and ≤ were set here for values at or beyond the usual limits of such assays; settings: source organism: Homo sapiens
HLA-B*45:06 = assay: as above; settings: source organism: Homo sapiens
HLA-B*15:42 = assay: as above; settings: source organism: Homo sapiens
HLA-A*29:02 = assay: as above; settings: source organism: Homo sapiens
HLA-B*15:01 [11] = assay: as above; settings: source organism: Shigella boydii CDC 3083-94
HLA-B*51:01 = assay: as above; settings: source organism: Shigella boydii CDC 3083-94
HLA-A*02:06 = assay: IEDB peptide-MHC binding, purified MHC/competitive/radioactivity; filed as Kd, often an IC50 or EC50 that approximates it; ≥ and ≤ were set here for values at or beyond the usual limits of such assays; settings: source organism: Vaccinia virus WR
HLA-A*02:01 [12] = assay: as above; settings: source organism: Vaccinia virus WR
HLA-A*02:02 = assay: as above; settings: source organism: Vaccinia virus WR
HLA-A*02:03 = assay: as above; settings: source organism: Vaccinia virus WR
HLA-C*06:02 = assay: IEDB peptide-MHC binding, purified MHC/direct/fluorescence; filed as Kd, often an IC50 or EC50 that approximates it; ≥ and ≤ were set here for values at or beyond the usual limits of such assays
HLA-C*05:01 = assay: as above; settings: source organism: human gammaherpesvirus 4
HLA-A*02:01 [13] = assay: IEDB peptide-MHC binding, purified MHC/competitive/fluorescence; filed as Kd, often an IC50 or EC50 that approximates it; ≥ and ≤ were set here for values at or beyond the usual limits of such assays; settings: source organism: West Nile virus
HLA-B*48:01 = assay: IEDB peptide-MHC binding, purified MHC/direct/fluorescence; filed as Kd, often an IC50 or EC50 that approximates it; ≥ and ≤ were set here for values at or beyond the usual limits of such assays; settings: source organism: West Nile virus
HLA-B*46:01 = assay: as above; settings: source organism: West Nile virus
HLA-B*40:01 [14] = assay: as above; settings: source organism: West Nile virus
HLA-B*07:02 [15] = assay: as above; settings: source organism: West Nile virus
HLA-A*31:01 = assay: as above; settings: source organism: West Nile virus
HLA-B*27:05 = assay: as above; settings: source organism: West Nile virus
HLA-A*03:01 [16] = assay: as above; settings: source organism: West Nile virus
HLA-B*15:09 = assay: as above; settings: source organism: West Nile virus strain PTRoxo
HLA-B*44:02 = assay: as above; settings: source organism: West Nile virus
HLA-B*18:01 = assay: as above; settings: source organism: West Nile virus
[17] = source organism: Zaire ebolavirus
[18] = source organism: Sudan ebolavirus
[19] = source organism: Vaccinia virus WR
[20] = source organism: Giardia lamblia ATCC 50803
[21] = source organism: West Nile virus

APSPYNSRF
Kd (HLA-B*07:02 [1]; source organism: Influenza A virus): 7.1 nM

AVARKHHTK
IC50 (HLA-A*03:01 [2]; source organism: Variola virus): 1460 nM | IC50 (HLA-A*11:01): 471 nM | IC50 (HLA-B*08:01 [3]; source organism: Variola virus): ≥ 436000 nM

EEAKLFFQV
Kd (HLA-B*40:01 [4]; source organism: Yersinia pestis Antiqua): 6.4 nM

ELRTFSILN
IC50 (HLA-B*08:01 [3]; [17]): ≥ 302000 nM | IC50 (HLA-A*24:02): 30100 nM

ERQLAKAII
IC50 (HLA-B*08:01 [3]; source organism: Vaccinia virus Copenhagen): ≥ 111000 nM

FIYGYLEPV
Kd (HLA-A*02:01 [5]): ≤ 1 nM | Kd (HLA-A*02:19): 2 nM | Kd (HLA-A*02:11): ≤ 1 nM | Kd (HLA-C*12:03; source organism: Orthohantavirus): 12 nM | Kd (HLA-A*02:12): ≤ 1 nM | Kd (HLA-A*69:01): ≤ 1 nM

FLRATTELR
IC50 (HLA-A*02:01 [6]; [18]): 56200 nM | IC50 (HLA-A*03:01 [2]; [18]): 26100 nM | IC50 (HLA-B*08:01 [3]; [17]): ≥ 87800 nM

FMHEQGYSH
IC50 (HLA-A*02:01 [6]; [19]): 9720 nM | IC50 (HLA-B*15:01 [7]): 14800 nM | IC50 (HLA-B*08:01 [3]; [19]): ≥ 301000 nM

FQRAIMNAM
Kd (HLA-B*08:01 [8]): 154 nM | Kd (HLA-B*39:01): 37.7 nM | Kd (HLA-C*12:03; source organism: Escherichia coli MS 119-7): 99 nM

FTTNIWMKF
Kd (HLA-A*01:01 [9]): 5160 nM | Kd (HLA-C*15:02; source organism: dengue virus type 4): ≥ 20000 nM

GDIKASNIV
IC50 (HLA-B*08:01 [3]; [19]): ≥ 298000 nM

GLLIVKTVL
IC50 (HLA-A*02:01 [6]; [17]): 294 nM | IC50 (HLA-B*08:01 [3]; [17]): ≥ 135000 nM | IC50 (HLA-A*24:02): ≥ 105000 nM

HEYQGKAVL
Kd (HLA-B*40:01 [4]; source organism: Bacillus anthracis str. A0488): 5.1 nM

IEHALAHQL
Kd (HLA-B*40:01 [4]; source organism: Salmonella enterica subsp. enterica serovar Typhi): 7.7 nM

ITDMRNGFN
Kd (HLA-A*01:01 [10]; source organism: Escherichia coli O139:H28 str. E24377A): ≥ 20000 nM

KTWGQYWQV
Kd (HLA-C*15:02; source organism: Homo sapiens): 49 nM

LEPRVFGWM
Kd (HLA-B*40:01 [4]; source organism: Escherichia coli F11): 71.3 nM

LETCHRNAF
Kd (HLA-B*40:01 [4]; source organism: Escherichia coli 536): 1030 nM

LLAKSVFNSLY
Kd (HLA-A*01:01 [10]; source organism: Influenza A virus (A/X-31(H3N2))): 93 nM

LPFQNIHPITI
Kd (HLA-B*07:02 [1]; source organism: Influenza A virus (A/duck/Bavaria/1/1977(H1N1))): 57.4 nM

NELGVPFHL
Kd (HLA-B*40:01 [4]; source organism: Influenza A virus (A/nt/60/1968(H3N2))): 2.1 nM

NPRMFLAM
Kd (HLA-B*07:02 [1]; source organism: Influenza A virus (A/Fort Monmouth/1/1947-mouse adapted(H1N1))): 372 nM

RTHEESLRL
Kd (HLA-B*58:01; [20]): 1480 nM | Kd (HLA-B*57:01; [20]): 2080 nM | Kd (HLA-C*15:02; [20]): 50 nM

STMRRMALR
Kd (HLA-B*83:01): ≥ 5000 nM | Kd (HLA-B*45:06): ≥ 5000 nM | Kd (HLA-B*15:42): ≥ 5000 nM | Kd (HLA-A*29:02): ≥ 20000 nM | Kd (HLA-A*01:01 [10]; source organism: Homo sapiens): ≥ 20000 nM

TPAVCGPVI
Kd (HLA-B*07:02 [1]; source organism: Shigella boydii CDC 3083-94): 23.8 nM | Kd (HLA-B*15:01 [11]): ≥ 20000 nM | Kd (HLA-B*51:01): 1860 nM

VLPFDIKYI
Kd (HLA-A*02:06): 506 nM | Kd (HLA-A*02:01 [12]): 15 nM | Kd (HLA-A*02:02): 135 nM | Kd (HLA-A*02:03): 9.68 nM | Kd (HLA-C*06:02; source organism: Vaccinia virus L-IPV): 3390 nM

VTDEGTSSF
Kd (HLA-C*06:02; source organism: human gammaherpesvirus 4): 332 nM | Kd (HLA-C*05:01): ≤ 1 nM

YTMDGEYRL
Kd (HLA-A*02:01 [13]): 1.37 nM | IC50 (HLA-A*02:01 [6]; source organism: West Nile virus NY-99): 291 nM | Kd (HLA-B*48:01): ≥ 20000 nM | Kd (HLA-B*58:01; [21]): ≥ 20000 nM | Kd (HLA-B*57:01; [21]): ≥ 20000 nM | Kd (HLA-B*46:01): ≥ 20000 nM | Kd (HLA-B*40:01 [14]): ≥ 20000 nM | Kd (HLA-C*12:03; [21]): 347 nM | Kd (HLA-B*07:02 [15]): ≥ 20000 nM | Kd (HLA-A*31:01): ≥ 20000 nM | Kd (HLA-B*27:05): ≥ 20000 nM | Kd (HLA-A*03:01 [16]): ≥ 20000 nM | Kd (HLA-B*15:09): ≥ 20000 nM | Kd (HLA-B*44:02): ≥ 20000 nM | Kd (HLA-B*18:01): ≥ 20000 nM | Kd (HLA-C*15:02; [21]): 85 nM

Source: the Immune Epitope Database (IEDB)
